Tests used:
[1] = molecular target: His-tagged human FcγRIIIa (F158 allotype), extracellular domain (amino acids 17-208) (human) (UniProt P08637); assay: SPR
[2] = molecular target: His-tagged human FcγRIIIa (V158 allotype), extracellular domain (amino acids 17-208) (human) (UniProt P08637); assay: SPR
[3] = molecular target: His-tagged human FcγRIIIa (V158 allotype), extracellular domain (amino acids 17-208) (human) (UniProt P08637); assay: SPR; Biacore T200; His-tagged FcγRIIIa captured (40 RU) by anti-His antibody on a CM5 chip; Rituxan flowed over, HEPES-EP running buffer; KD from steady state; three independent runs

Row | Substance | Kd [1] [nM] | Kd [2] [nM] | Kd [3] [nM]
1 | rituximab (Rx), plant-produced, expressed alone | 66.6 | 18 | 
2 | mammalian cell produced rituximab (Rituxan) (antibody) |  |  | 263
3 | mammalian cell produced rituximab (Rituxan) |  | 262 | 
4 | rituximab (Rx), plant-produced, co-expressed with LdOST | 50.1 | 13 | 
5 | rituximab (Rx), plant-produced, co-expressed with LmSTT3D | 54.4 | 12 | 

Source: publication PMC10442823
